B1: human ClC-3 purified alone (C-terminal mCerulean tag removed) (natural protein)
chain: MESEQLFHRGYYRNSYNSITSASSDEELLDGAGVIMDFQTSEDDNLLDGDTAVGTHYTMTNGGSINSSTHLLDLLDEPIPGVGTYDDFHTIDWVREKCKDRERHRRINSKKKESAWEMTKSLYDAWSGWLVVTLTGLASGALAGLIDIAADWMTDLKEGICLSALWYNHEQCCWGSNETTFEERDKCPQWKTWAELIIGQAEGPGSYIMNYIMYIFWALSFAFLAVSLVKVFAPYACGSGIPEIKTILSGFIIRGYLGKWTLMIKTITLVLAVASGLSLGKEGPLVHVACCCGNIFSYLFPKYSTNEAKKREVLSAASAAGVSVAFGAPIGGVLFSLEEVSYYFPLKTLWRSFFAALVAAFVLRSINPFGNSRLVLFYVEYHTPWYLFELFPFILLGVFGGLWGAFFIRANIAWCRRRKSTKFGKYPVLEVIIVAAITAVIAFPNPYTRLNTSELIKELFTDCGPLESSSLCDYRNDMNASKIVDDIPDRPAGIGVYSAIWQLCLALIFKIIMTVFTFGIKVPSGLFIPSMAIGAIAGRIVGIAVEQLAYYHHDWFIFKEWCEVGADCITPGLYAMVGAAACLGGVTRMTVSLVVIVFELTGGLEYIVPLMAAVMTSKWVGDAFGREGIYEAHIRLNGYPFLDAKEEFTHTTLAADVMRPRRNDPPLAVLTQDNMTVDDIENMINETSYNGFPVIMSKESQRLVGFALRRDLTIAIESARKKQEGIVGSSRVCFAQHTPSLPAESPRPLKLRSILDMSPFTVTDHTPMEIVVDIFRKLGLRQCLVTHNGRLLGIITKKDILRHMAQTANQDPASIMFN
notes: human ClC-3 (P51790), the long isoform used for structural analysis (proton glutamate E339); The cloning of a C-terminally tagged ClC-3 is not described elsewhere in the methods; Residues of the PreScission linker may be left after cleavage; also called ligand-free human ClC-3; not shown: mCerulean, C-terminal, cleaved
B2: human ClC-3 purified in complex with T9A (N-terminal mCerulean tag removed) (natural protein)
chain: B1 chain
notes: human ClC-3 (P51790), the long isoform used for structural analysis (proton glutamate E339); Residues of the PreScission linker may be left on the N-terminus after cleavage; PtdIns(3,5)P2 co-purified with the complex; also called ClC-3/T9A; ClC-3/noT9A; not shown: mCerulean, N-terminal, cleaved

Tests used:
[1] = biological target: the molecule itself; test: cryo-EM structure; ClC-3 alone, 3 mg/ml, no exogenous ligands, glyco-diosgenin, 50 mM Tris-HCl pH 8, 150 mM KCl, 2 mM DTT; C2 symmetry
[2] = biological target: the molecule itself; test: cryo-EM structure; ClC-3 co-expressed and co-purified with T9A, 5 mg/ml, no exogenous ligands, glyco-diosgenin, 50 mM Tris-HCl pH 8, 150 mM KCl, 2 mM DTT; four classes by 3D classification

Protein | stoichiometry N [1] | stoichiometry N [2]
B1 | 2 | 
B2 |  | 2
